Experimental findings from the nanobody polyreactivity screen of Harvey et al. (2022) are described below.

The data set can be described thus: yeast display, Sf9 membrane polyspecificity reagent, FACS + sequencing; frameworks hold sequencing errors. The gist of the method:
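After 36–48 hours of galactose induction, yeast (Saccharomyces cerevisiae BJ5465) displaying a synthetic nanobody library were stained at 4 °C for 1 hour with 10% biotinylated, detergent-solubilized Sf9 membrane reagent. Streptavidin microbeads enriched the stained cells before FACS sorting into low and high (top ~1%) gates on anti-HA and streptavidin fluorescence. Each clone's polyreactivity label reflects its gate of origin.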
For “QVQLVESGGGLVQAGGSLRLSCAASGRTFVNNAMGWYRQAPGKERELVAAISRSGGRTYYADSVKGRFTISRDNAKNTVYLQMNSLKPEDTAVYYCAADSSYSRKYDYWGQGTQVTVSS”, the “polyreactivity (PSR sort gate)” value is reported as “low polyreactivity”.

Turning to “QVQLVESGGGLVQAGGSLRLSCAASGRTFVNNAMGWYRQAPGKERELVAAITRSGGRTYYADSVKGRFTISRDNAKNTVYLQMNSLKPEDTAVYYCATANVRLRHDDYWGQGTQVTVSS”, the “polyreactivity (PSR sort gate)” value is listed as “high polyreactivity”.

Regarding “QVQLVESGGGLVQAGGSLRLSCAASGRTFVNYTMGWYRQAPGKERELVAAVSWTGGRTYYADSVKGRFTISRDNAKNTVYLQMNSLKPEDTAVYYCATQPEKSGRPAIDPELYDYWGQGTQVTVSS”, the “polyreactivity (PSR sort gate)” value is “low polyreactivity”.

Consider “QVQLVESGGGLVQAGGSLRLSCAASGRTFVPNAMGWYRQAPGKERELVAAISDSGGSTYYADSVKGRFTISRDNAKNTVYLQMNSLKPEDTAVYYCATDGTTYVGWEHGFNYWGQGTQVTVSS”, for which the “polyreactivity (PSR sort gate)” value was “low polyreactivity”.

Consider “QVQLVESGGGLVQAGGSLRLSCAASGRTFVPYAMGRYRQAPGKERELVAAISARGSSTYYADSVKGRFTISRDNAKNTVYLQMNSLKPEDTAVYYCNAVGARVASATGMEYWGQGTQVTVSS”, for which the “polyreactivity (PSR sort gate)” value was “high polyreactivity”.

As to “QVQLVESGGGLVQAGGSLRLSCAASGRTFVPYAMGWYRQAPGKERELVAAINSGGSTYYADSVKGRFSISRDNAKNTVYLQMNSLKPEDTAVYYCAAEYWNSRFSYAYGYWGQGTQVTVSS”, the “polyreactivity (PSR sort gate)” value is “high polyreactivity”.

With “QVQLVESGGGLVQAGGSLRLSCAASGRTFVPYAMGWYRQAPGKERELVAAITSSGGSTYYADSVKGRFTISRDNAKNTVYLQMNSLKPEDTAVYYCNALDGTLRTIYDYWGQGTQVTVSS”, the “polyreactivity (PSR sort gate)” value is reported as “high polyreactivity”.

On to “QVQLVESGGGLVQAGGSLRLSCAASGRTFVRNAMGWYRQAPGKERELVAAISSSGGSTYYADSVKGRFTISRDNAKNTVYLQMNSLKPEDTAVYYCAARSAFYYTYRSHYGWGMDYWGQGTQVTVSS”, for which the “polyreactivity (PSR sort gate)” value is on record as “high polyreactivity”.

For “QVQLVESGGGLVQAGGSLRLSCAASGRTFVRNAMGWYRQAPGKERELVAGIRRGGTTNYADSVKGRFTISRDNAKNTVYLQMNSLKPEDTAVYYCNALYRYGWLYAPKYNSWGQGTQVTVSS”, the “polyreactivity (PSR sort gate)” value is given as “high polyreactivity”.

Turning to “QVQLVESGGGLVQAGGSLRLSCAASGRTFVRYAMGRYRQAPGKERELVAAISGDGASTYYADSVKGRFTISRDNAKNTVYLQMNSLKPEDPAVYYCNARSIRRYYYPDYDYWGQGTQVTVSS”, the “polyreactivity (PSR sort gate)” value is on record as “high polyreactivity”.

Regarding “QVQLVESGGGLVQAGGSLRLSCAASGRTFVRYAMGWYRQAPGKERELVAAISRTGGTTYYADSVKGRFTISRDNAKNTVYLQMNSLKPEDTAVYYCNADPFYKYGYWGQGTKVTVSS”, the “polyreactivity (PSR sort gate)” value is “high polyreactivity”.

Consider “QVQLVESGGGLVQAGGSLRLSCAASGRTFVRYAMGWYRQAPGKERELVASIRTGGSTNYADSVKGRFTISRDNAKNTVYLQMNSLKPEDTAVYYCAAPRTYRPWGRMDYWGQGTQVTVSS”, for which the “polyreactivity (PSR sort gate)” value is on record as “high polyreactivity”.

Consider “QVQLVESGGGLVQAGGSLRLSCAASGRTFVSHAMGWYRQAPGKERELVAAITNGGRTYYADSVKGRFTISRDNAKNTVYLQMNSLKPEDTAVYYCAAYVPTFKDRSRWYGRKYDYWGQGTQVTVSS”, for which the “polyreactivity (PSR sort gate)” value is on record as “low polyreactivity”.

For “QVQLVESGGGLVQAGGSLRLSCAASGRTFVSNAMGWYRQAPGKERELVAAISFSGDSTYYADSVKGRFTISRDNAKKTVYLQMNSLKPEDTAVYYCRFYSYWSWLGREYDYWGQGTQVTVSS”, the “polyreactivity (PSR sort gate)” value was “low polyreactivity”.

With “QVQLVESGGGLVQAGGSLRLSCAASGRTFVSNAMGWYRQAPGKERELVAAISWSGSRTYYADSVKGRFTISRDNAKNTVYLQMNSLKPEDTAVYYCAAAKPKKSRGSAYEYWGQGTQVTVSS”, the “polyreactivity (PSR sort gate)” value is recorded as “high polyreactivity”.

Consider “QVQLVESGGGLVQAGGSLRLSCAASGRTFVSNDMGWYRQAPGKERELVATISSGASTYYADSVKGRFTISRDNAKITVYLQMNSLKPEDTAVYYCAAEVLVFGGGYDYWGQGTQVTVSS”, for which the “polyreactivity (PSR sort gate)” value was “low polyreactivity”.

Regarding “QVQLVESGGGLVQAGGSLRLSCAASGRTFVSNVMGWYRQAPGKERELVAAINWSGDSTYYADSVKGRFTISRDNAKNTVYLQMNSLKPEDTAVYYCARRNPLGGNEHDYWGQGTQVTVSS”, the “polyreactivity (PSR sort gate)” value was “low polyreactivity”.

As for “QVQLVESGGGLVQAGGSLRLSCAASGRTFVSYTMGWYRQAPGKERELVAAISSGGSTTYADSVKGRFTISRDNAKNTVYLQMNSLKPEDTAVYYCNARYGWSYWSKYDYWGQGTQVTVSS”, the “polyreactivity (PSR sort gate)” value is on record as “high polyreactivity”.

“QVQLVESGGGLVQAGGSLRLSCAASGRTFVSYVMGLYRQAPGKERELVAAITWRGGSTYYADSVKGRFTISRDNAKNTVYLQMNSLKPEDTAVYYCNADYRYIWTYWGWTIYDYWGQGTQVTVSS”: the “polyreactivity (PSR sort gate)” value is recorded as “high polyreactivity”.

Take “QVQLVESGGGLVQAGGSLRLSCAASGRTFVTNAMGWYRPAPGKERELVPAISSNGGSTYYADSVKGRFTISRDTAKNTVYLQMNSLKPEDTAVYYCNAEGQPLYWWDHGNYWGQGTQVTVSS”: the “polyreactivity (PSR sort gate)” value is listed as “low polyreactivity”.

On to “QVQLVESGGGLVQAGGSLRLSCAASGRTFVTYAMGWYRQAPGKERELVAGIRRGGSTYYADSVKGRFTISRDNAKNTVYLQMNSLKPDDPAVYDCAKTFYAHRAYTSYTARPYDYWGQGTQVTVSS”, for which the “polyreactivity (PSR sort gate)” value was “high polyreactivity”.

Regarding “QVQLVESGGGLVQAGGSLRLSCAASGRTFVTYAMGWYRQAPGKERELVAVITNGGGTYYADSVKGRFTISRDNAKNTVYLQMNSLKPEDTALYYCNNDRYGLRRWVYSYLGGYDYWGQGTQVTVSS”, the “polyreactivity (PSR sort gate)” value is “low polyreactivity”.

“QVQLVESGGGLVQAGGSLRLSCAASGRTFVTYVMGWYRQAPGKEREFVAAIRWSGGRTYYADSVKGRFTISRDNAKNTVYLQMNSLKPEDTAVYYCAAVYYDRSYRYEYWGQGTQVTVSS”: the “polyreactivity (PSR sort gate)” value is recorded as “high polyreactivity”.

Consider “QVQLVESGGGLVQAGGSLRLSCAASGRTFVYNAMGWYRQAPGKERELVAAIDGGGDRTYYADSVKGRFTISRDNAKNTVYLQMTSLNPEDTAVYYCARDPGDTYYYSYPEGDYWGQGTQVTVSS”, for which the “polyreactivity (PSR sort gate)” value was “low polyreactivity”.

As for “QVQLVESGGGLVQAGGSLRLSCAASGRTFVYYAMGWYRQAPGKERELVASISSNGGTYYADSVKGRFTISRDNAKNTVYLQMNSLKPEDTAVYYCNAKRVARYQYGASYNYWGQGTQVTVSS”, the “polyreactivity (PSR sort gate)” value was “high polyreactivity”.

“QVQLVESGGGLVQAGGSLRLSCAASGRTFVYYAMGWYRQAPGKERELVATITRSGGSTYYADSVKGRFTISRDNAKNTVYLQMNSLKPEDTAVYYCAVLYWRPGYDYWGQGTQVTVSS”: the “polyreactivity (PSR sort gate)” value was “high polyreactivity”.

As to “QVQLVESGGGLVQAGGSLRLSCAASGRTFVYYAMGWYRQAPGTERELVAAISTGGSTNYADSVKGRFTISRDNAKNSVYLQMNSLKPEDTAVYYCAAQYYISISKYDYWGQGTQVTVSS”, the “polyreactivity (PSR sort gate)” value is reported as “low polyreactivity”.

“QVQLVESGGGLVQAGGSLRLSCAASGRTFVYYAMVWSRQAPGKEREFVAAISRSGGRTSYADSVKGRFTISRDNAKNTVYLQMNSLKPEDTAVYYCAAENRTQPTSREYYWGQGNQVTVSS”: the “polyreactivity (PSR sort gate)” value is “high polyreactivity”.

As for “QVQLVESGGGLVQAGGSLRLSCAASGRTFVYYTRGWYRPAPGKERELVAAISWNGDDTYYADSVKGRFTISRDNAKNTVYLQMNSLKPEDTAVYYCAKESYTDYDTYYYWGQGTQVTVSS”, the “polyreactivity (PSR sort gate)” value is “low polyreactivity”.

Turning to “QVQLVESGGGLVQAGGSLRLSCAASGRTFVYYVMGWYRQAPGKERELVAGISRGGSTDYADSVKGRFTISRDNAKNTVYLQMNSLKPEDTAVYYCNRLLRRHLYIFYYWGQGTQVTVSS”, the “polyreactivity (PSR sort gate)” value is listed as “high polyreactivity”.
